The record followed here is patent publication US20220220216A1 (Kyowa Kirin, published 2022).

Substitutions are numbered along the chain they refer to. Names and notes keep the numbering of the source. Like-named read-outs stand apart in the source and are kept apart here.

Test [1] deals with T1, human GPC3 on a cell membrane (human, UniProt P51654 25-554).
T1 construct: HepG2 and HuH-7 carry the endogenous protein; also called hGPC3; GPC3 on HepG2 cells, HuH-7 cells, MC-38/hGPC3 cells and Expi293F cells transiently expressing human GPC3
Briefly: FCM on HepG2 cells (GPC3-positive), APC anti-human IgG Fc, MFI [B].

Test [2] has as its target T2, human CD40 on cells (human, UniProt P25942 21-277).
T2 construct: Endogenous CD40 of Ramos cells (and of monocyte-derived dendritic cells); also called CD40 on Ramos cells; CD40 on human induced dendritic cells
Briefly: FCM on Ramos cells (CD40-positive, GPC3-negative). As to the method:
(§1) Ramos cells were suspended in SB at a cell density of 1×10⁶ cells/mL, and the suspension was dispensed in a 96-well round bottom plate (manufactured by Falcon, Inc.) at 100 μL/well.
(§2) After further centrifugation (2000 rpm, 4° C., 2 minutes), the supernatant was removed, and the pellet was washed 3 times with 200 μL/well of SB, and then, APC-conjugated AffiniPure F(ab′)₂ Goat Anti-Human IgG, Fcγ (manufactured by Jackson ImmunoResearch Laboratories, Inc.) diluted 100 times was added thereto at 100 μL/well, and the plate was incubated at ice temperature for 30 minutes. After washing twice with SB, the cells were suspended in 100 μL/well of SB, and the fluorescence intensity of each cell was measured using a flow cytometer FACSCANTO II (manufactured by Becton, Dickinson and Company).

Test [3] deals with T3, Human GPC3-His (manufactured by ACROBiosystems, Inc.) (human, UniProt P51654 25-559).
T3 construct: Bought protein; also called hGPC3-His; not shown: His tag
As to the kind of experiment: SPR (Biacore T100), antibody captured on anti-human IgG, antigen as analyte, single cycle kinetics. The method, then: (§3) An anti-human IgG antibody was immobilized on a CMS sensor chip (manufactured by GE Healthcare, Inc.) using Human Antibody Capture Kit (manufactured by GE Healthcare, Inc.) according to the package insert. A test antibody prepared at 2 μg/mL was added to a flow cell for 10 seconds at a flow rate of 10 μL/min.
(§4) The measurement was performed by a single cycle kinetics method.

Test [4] has as its target T2, human CD40 on cells. Briefly: FCM on Ramos cells (CD40-positive), MFI [B]. As to the method: The reactivity of each of various bispecific antibodies produced in Example 16 with HepG2 cells and Ramos cells was evaluated by FCM in the same manner as in Example 7.
Test [5] concerns the target T3, Human GPC3-His (manufactured by …). Briefly: SPR (Biacore T100), antibody captured on anti-human IgG, antigen as analyte, single cycle kinetics. As to the method:
as §3, §4
(§5) The obtained sensorgram was analyzed using Bia Evaluation Software (manufactured by GE Healthcare, Inc.), and the kinetic constant of each antibody was calculated.
The source holds these as a separate data set. For orientation: In SPR one partner is held on a chip, and binding of the other changes the refractive index at the surface.

Test [6] has the same target. Briefly: SPR (Biacore T100), antibody captured on anti-human IgG, antigen as analyte, single cycle kinetics; first run (Table 8). The method, then:
as §3, §4, §5

Test [7] shares this target. Briefly: SPR (Biacore T100), antibody captured on anti-human IgG, antigen as analyte, single cycle kinetics; second run (Table 9). The method, then:
as §3, §4

Test [8] has as its target T2, human CD40 on cells. As to the kind of experiment: FCM on Ramos cells (CD40-positive, GPC3-negative), APC anti-human IgG Fc, MFI [A]. As to the method: as §1, §2
For test [9], the target named is T2, human CD40 on cells. Briefly: FCM on Ramos cells (CD40-positive, GPC3-negative), antibody at 0.01-10 µg/mL, APC anti-human IgG Fc, MFI [A]. As to the method: as §1, §2
In test [10] the target is T4, human CD40-GST protein (human, UniProt P25942 21-193).
T4 construct: not shown: GST region of the N5 vector
Briefly: phage ELISA, CD40-GST immobilised on the plate. As to the method: (§6) In the ELISA, MAXISORP (manufactured by NUNC, Inc.) in which the human or monkey CD40-GST in Example 1 was immobilized on each well and a portion to which the human or monkey CD40-GST is not bound was blocked using SuperBlock Blockig Buffer (manufactured by Thermo Fisher, Inc.) was used. To each well, each phage clone was added and reacted at room temperature for 30 minutes, and thereafter, each well was washed 3 times with PBS-T.
(§7) Subsequently, an anti-M13 antibody (manufactured by GE Healthcare, Inc.) labeled with horseradish peroxidase was diluted 5000 times with PBS-T containing 10% Block Ace (manufactured by Dainippon Pharmaceutical Co., Ltd.), and the resultant was added in an amount of 50 μL to each well, and incubated at room temperature for 30 minutes. After the microplate was washed four times with PBS-T, a TMB chromogenic substrate solution (manufactured by DAKO, Inc.) was added in an amount of 50 μL to each well and incubated at room temperature for 10 minutes.

In test [11] the target is T5, monkey CD40-GST protein (monkey, UniProt P25942 21-193 (human entry)).
T5 construct: it may begin with a signal peptide; not shown: GST region of the N5 vector
T5 chain: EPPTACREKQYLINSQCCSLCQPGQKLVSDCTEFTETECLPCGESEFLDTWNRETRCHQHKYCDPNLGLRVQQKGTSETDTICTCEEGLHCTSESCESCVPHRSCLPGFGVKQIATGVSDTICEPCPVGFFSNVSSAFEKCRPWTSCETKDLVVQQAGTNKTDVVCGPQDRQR
Briefly: phage ELISA, CD40-GST immobilised on the plate. The method, then: as §6, §7

What is called Kd is the free concentration of one partner at which half of the binding sites on the other are occupied at equilibrium, for simple one-to-one binding. The term koff denotes the first-order rate constant of dissociation. By kon is commonly meant the second-order rate constant of association.

T3 sequence (P51654 25-559 limits assumed): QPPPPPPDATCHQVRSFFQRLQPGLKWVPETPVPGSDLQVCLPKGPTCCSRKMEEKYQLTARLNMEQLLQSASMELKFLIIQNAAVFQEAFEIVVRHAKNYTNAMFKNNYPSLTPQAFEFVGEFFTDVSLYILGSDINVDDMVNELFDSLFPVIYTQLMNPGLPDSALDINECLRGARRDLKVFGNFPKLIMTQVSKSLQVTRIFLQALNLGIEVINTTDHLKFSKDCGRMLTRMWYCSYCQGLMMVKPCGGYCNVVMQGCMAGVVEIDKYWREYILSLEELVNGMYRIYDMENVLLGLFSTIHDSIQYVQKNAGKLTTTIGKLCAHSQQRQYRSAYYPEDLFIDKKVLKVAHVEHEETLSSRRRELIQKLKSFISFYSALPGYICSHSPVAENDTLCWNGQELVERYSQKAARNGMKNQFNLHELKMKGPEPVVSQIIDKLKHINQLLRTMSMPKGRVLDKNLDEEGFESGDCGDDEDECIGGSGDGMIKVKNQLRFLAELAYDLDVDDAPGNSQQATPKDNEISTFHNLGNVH
T1 sequence (P51654 25-554 limits assumed): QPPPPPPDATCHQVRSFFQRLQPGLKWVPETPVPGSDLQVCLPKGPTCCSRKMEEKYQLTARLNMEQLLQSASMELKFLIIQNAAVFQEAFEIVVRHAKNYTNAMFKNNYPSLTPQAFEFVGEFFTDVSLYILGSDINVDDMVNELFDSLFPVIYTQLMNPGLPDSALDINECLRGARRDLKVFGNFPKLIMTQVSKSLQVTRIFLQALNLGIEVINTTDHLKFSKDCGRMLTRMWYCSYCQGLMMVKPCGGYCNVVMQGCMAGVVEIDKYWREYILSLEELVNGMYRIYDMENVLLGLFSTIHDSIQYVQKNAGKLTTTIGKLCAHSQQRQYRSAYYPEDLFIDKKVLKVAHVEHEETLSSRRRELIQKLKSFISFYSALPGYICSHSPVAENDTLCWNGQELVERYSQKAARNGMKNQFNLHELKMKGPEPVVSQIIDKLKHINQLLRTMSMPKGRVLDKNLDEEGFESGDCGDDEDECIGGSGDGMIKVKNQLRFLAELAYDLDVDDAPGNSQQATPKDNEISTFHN

B1: anti-CD40 monoclonal antibody 21.4.1 (CP-870,893) (antibody, V domains shown)
VH: not shown
VL: DIQMTQSPSSVSASVGDRVTITCRASQGIYSWLAWYQQKPGKAPNLLIYTASTLQSGVPSRFSGSGSGTDFTLTISSLQPEDFATYYCQQANIFPLTFGGGTKVEIK
notes: Constant region of human IgG2 (N5KG2 vector); positive control agonistic anti-CD40 antibody
With B1, the binding result in [1] is “no binding (tested: 10 µg/mL)”.

B2: anti-GPC3 antibody GPngs18 (antibody, human IgG4 S228P, kappa, V domains shown)
VH: EVQLVESGGGLVQPGGSLRLSCAASGFTFSSYSMNWVRQAPGKGLEWVSYIRSDSRTIKYADSVKGRFTISRDNAKNSLFLQMNSLRDEDTAVYYCARWEWELDAFDIWGQGTMVTVSS
VL: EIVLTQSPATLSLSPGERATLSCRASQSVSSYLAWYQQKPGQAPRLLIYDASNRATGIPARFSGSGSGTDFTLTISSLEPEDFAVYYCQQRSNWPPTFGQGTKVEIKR
notes: IgG4PE R409K; light chain with L6 as VL
With B2, the binding result in test [2] is recorded as “no binding (tested: 10 µg/mL)”. Moreover, in [3], the Kd stood at 0.39 nM, the koff turned out to be 0.000764 s⁻¹ and the kon was determined as 1.96e+06 M⁻¹ s⁻¹.

B3: conventional anti-GPC3 antibody HN3 (IgG4PE R409K) (antibody, V domains shown)
VH: QVQLVQSGGGLVQPGGSLRLSCAASYFDFDSYEMSWVRQAPGKGLEWIGSIYHSGSTYYNPSLKSRVTISRDNSKNTLYLQMNTLRAEDTATYYCARVNMDRFDYWGQGTLVTVSS
notes: Variable region from WO 2012/145469
As to B3, in test [4], the binding result is given as “no binding (tested: 10 µg/mL)”. In addition, the figures for the dissociation constant (Kd) in test [5] and in test [3] were 13.2 nM and 24.4 nM, respectively. For the same molecule, the kon in [6] and in [7] was above 1e+07 M⁻¹ s⁻¹ in each case.

B4: conventional anti-GPC3 antibody GC33 (IgG4PE R409K) (antibody, V domains shown)
VH: QVQLQQSGAELVRPGASVKLSCKASGYTFTDYEMHWVKQTPVHGLKWIGALDPKTGDTAYSQKFKGKATLTADKSSSTAYMELRSLTSEDSAVYYCTRFYSYTYWGQGTLVTVSA
VL: DVVMTQTPLSLPVSLGDQASISCRSSQSLVHSNGNTYLHWYLQKPGQSPKLLIYKVSNRFSGVPDRFSGSGSGTDFTLKISRVEAEDLGVYFCSQNTHVPPTFGSGTKLEIK
notes: Variable regions from WO 2006/006693; not shown: constant region of 'a κ chain'
In the case of B4, the binding result in test [4] is “no binding (tested: 10 µg/mL)”. In test [5], this molecule yielded a Kd of 2.6 nM, a koff of 0.000378 s⁻¹ and a kon of 145000 M⁻¹ s⁻¹. In test [3], this molecule came in with a Kd of 1.46 nM, a koff of 0.000299 s⁻¹ and a kon of 205000 M⁻¹ s⁻¹.

B5: anti-GPC3 antibody GpA6062 (antibody, human IgG4 S228P, kappa, V domains shown)
VH: EVQLVETGGGLVQPGGSLRLSCAASGFSFSSYAMNWVRQAPGKGLEWVSYITSGGSSRYYADSVKGRFTISRDNAKNSLYLQMNSLRDEDTAVYYCARGTYYYGSGNYFLFDYWGQGTTVTVSS
VL: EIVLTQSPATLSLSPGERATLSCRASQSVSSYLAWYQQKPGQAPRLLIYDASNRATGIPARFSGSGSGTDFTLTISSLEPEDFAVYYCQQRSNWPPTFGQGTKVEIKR
notes: as for B2
Regarding B5, the binding result in test [8] is given as “no binding (tested: 10 µg/mL)”. In test [3], this molecule returned a Kd of 6.33 nM, a koff of 0.00175 s⁻¹ and a kon of 276000 M⁻¹ s⁻¹.

B6: anti-GPC3 antibody GpA6014 (antibody, human IgG4 S228P, kappa, V domains shown)
VH: B5 VH with E1Q, V2M, E6Q, T7S, Y113H, T119M
VL: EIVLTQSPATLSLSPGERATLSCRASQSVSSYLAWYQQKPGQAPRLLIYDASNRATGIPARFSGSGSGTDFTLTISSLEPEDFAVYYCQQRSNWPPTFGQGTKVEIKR
notes: as for B2
In the case of B6, in [8], the binding result is on record as “no binding (tested: 10 µg/mL)”. In test [3], this molecule showed a Kd of 6.35 nM, a koff of 0.00189 s⁻¹ and a kon of 297000 M⁻¹ s⁻¹.

B7: anti-GPC3 antibody GpA6005 (antibody, human IgG4 S228P, kappa, V domains shown)
VH: B5 VH with E1Q, T7S, S28T, A33S, T52K, G54S, R58T, Y80N, Y108F, T119L
VL: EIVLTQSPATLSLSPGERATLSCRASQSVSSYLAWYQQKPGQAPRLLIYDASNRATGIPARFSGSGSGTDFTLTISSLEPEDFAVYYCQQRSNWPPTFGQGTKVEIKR
notes: as for B2
Take B7: the binding result in test [8] is “no binding (tested: 10 µg/mL)”. In [3], this molecule displayed a Kd of 0.762 nM, a koff of 0.000347 s⁻¹ and a kon of 456000 M⁻¹ s⁻¹.

B8: conventional anti-GPC3 antibody YP7 (IgG4PE R409K) (antibody, V domains shown)
VH: EVQLVETGGGMVQPEGSLKLSCAASGFTFNKNAMNWVRQAPGKGLEWVARIRNKTNNYATYYADSVKARFTISRDDSQSMLYLQMNNLKIEDTAMYYCVAGNSFAYWGQGTLVTVSA
VL: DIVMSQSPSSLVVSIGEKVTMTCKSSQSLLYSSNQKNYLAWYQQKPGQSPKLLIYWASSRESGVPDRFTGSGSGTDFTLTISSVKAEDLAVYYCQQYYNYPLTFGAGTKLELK
notes: Variable regions from WO 2013/181543; not shown: constant region of 'a κ chain'
For B8, the binding result in [4] is reported as “no binding (tested: 10 µg/mL)”. Also, in [5], the dissociation constant (Kd) was found to be 0.861 nM, the koff was 0.000186 s⁻¹ and the kon amounted to 217000 M⁻¹ s⁻¹.

B9: anti-CD40 monoclonal antibody R1090S55A (antibody, V domains shown)
VH: EVQLVQSGAEVKKPGESLKISCKGSGYSFIIYWIGWVRQMPGKGLEWMGIIYPNDADTRYSPSFQGQVTISADKSISTAYLQWSSLKASDTAMYYCVRLGTRDWFDPWGQGTLVTVSS
VL: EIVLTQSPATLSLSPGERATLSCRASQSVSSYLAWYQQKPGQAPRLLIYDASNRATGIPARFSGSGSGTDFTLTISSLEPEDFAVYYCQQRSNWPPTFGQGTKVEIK
Take B9: the binding result in test [1] is “no binding (tested: 10 µg/mL)”; in test [9], “binds”.

B10: R1090S55A monoclonal phage clone (scFv displayed on M13 phage) (scFv, V domains shown)
VH: B9 VH
VL: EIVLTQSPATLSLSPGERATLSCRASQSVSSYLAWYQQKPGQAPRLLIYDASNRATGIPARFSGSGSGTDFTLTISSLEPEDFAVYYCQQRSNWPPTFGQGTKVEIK
notes: Form in the screening ELISA: scFv on phage (phagemid pCANTAB 5E); also called R1090S55A phage clone
As for B10, the binding result in [10] and in test [11] was “binds” each time.

B11: anti-GPC3 antibody GPngs62 (antibody, human IgG4 S228P, kappa, V domains shown)
VH: EVQLVESGGGLVQPGGSLRLSCAASGFTFSSYARSWVRQAPGKGLEWVSAISGGGGRTYYADSVKGRFTISRDNSQNTLYLQMNSLRAEDTAVYYCAKNYYGSGSASYWYFDLWGRGTLVTVSS
VL: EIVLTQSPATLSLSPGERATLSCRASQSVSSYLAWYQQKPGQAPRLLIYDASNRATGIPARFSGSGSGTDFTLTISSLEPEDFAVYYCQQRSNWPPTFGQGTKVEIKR
notes: as for B2
Take B11: in test [2], the binding result was “no binding (tested: 10 µg/mL)”. In test [3], this molecule showed a Kd of 5.36 nM, a koff of 0.031 s⁻¹ and a kon of 5.74e+06 M⁻¹ s⁻¹.
